Molecular target: HAstV8 spike protein VP25 (residues S484 to R708) (human astrovirus 8 (HAstV8))
Experiment: BLI

neonatal Fc receptor (FcRn), recombinant ectodomains, sequence (P55899 24-297): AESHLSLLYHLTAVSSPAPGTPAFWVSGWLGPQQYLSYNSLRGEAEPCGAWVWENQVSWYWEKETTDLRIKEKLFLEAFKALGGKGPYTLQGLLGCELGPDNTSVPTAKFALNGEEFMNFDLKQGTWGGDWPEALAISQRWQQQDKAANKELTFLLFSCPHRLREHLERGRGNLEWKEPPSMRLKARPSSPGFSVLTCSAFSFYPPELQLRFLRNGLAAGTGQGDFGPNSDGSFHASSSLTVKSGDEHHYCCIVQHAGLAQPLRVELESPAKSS
neonatal Fc receptor (FcRn), recombinant ectodomains, sequence (P61769 21-119): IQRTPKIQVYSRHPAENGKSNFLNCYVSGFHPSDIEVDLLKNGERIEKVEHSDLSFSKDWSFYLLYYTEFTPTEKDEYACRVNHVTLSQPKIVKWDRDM
HAstV8 spike protein VP25 (residues S484 to R708) (human astrovirus 8 (HAstV8)), sequence (Q9IFX1 424-648 limits assumed): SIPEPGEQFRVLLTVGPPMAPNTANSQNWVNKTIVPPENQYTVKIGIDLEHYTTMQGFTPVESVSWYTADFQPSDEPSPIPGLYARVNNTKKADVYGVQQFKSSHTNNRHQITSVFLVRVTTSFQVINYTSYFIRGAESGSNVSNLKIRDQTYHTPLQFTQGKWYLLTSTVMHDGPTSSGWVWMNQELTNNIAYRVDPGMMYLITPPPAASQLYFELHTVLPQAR

Substance “neonatal Fc receptor (FcRn), recombinant ectodomains (from UniProt P55899;P61769) (complex)” has a Kd of 0.623 µM and a half-life of 4.68 s.

— doi:10.1101/2024.07.12.603331
